According to patent US7592307B2, “Releasable linkage and compositions containing same” (Alza Corporation, priority 1999, dated 2009):

Assays:
[1] = Blood lysozyme concentration after intravenous or subcutaneous administration; type: in vivo; settings: rats
Experimental: The mPEG12000-MeDTB-lysozyme conjugates were administered in vivo to rats to characterize the in vivo behavior of the conjugate and its ability to cleave under physiologic conditions. In a first study, nine rats were divided into three test groups for administration of PEG-lysozyme, PEG-MeDTB-lysozyme, or free lysozyme. The test compound was administered intravenously or subcutaneously and blood samples were taken at defined times for analysis of blood lysozyme concentration.

[2] = target: bovine serum albumin (Bos taurus, UniProt P02769); assay: Cleavage of mPEG-DTB-lysozyme by albumin (SDS-PAGE stained for PEG); type: physicochemical; settings: treated with bovine serum albumin
Source text: In another set of studies, it was shown that the thiol group of albumin was acting as the cleaving agent. Albumin is an abundant protein-thiol in plasma (Kratz, F. et al. J. Med. Chem., 45:5523 (2002)). The SDS-PAGE gel from this study is shown in FIG. 16B, where Lanes 1-12 were as follows:
The gel was stained for visibility of PEG. […] Lane 10 corresponds to mPEG-DTB-lysozyme treated with albumin and no spot on the gel corresponding to the mPEG-DTB-lysozyme conjugate is visible (compare to Lane 11), nor is a spot corresponding to released PEG visible (compare to Lane 4).

[3] = Cleavage of mPEG-MeDTB-lysozyme in plasma (SDS-PAGE stained for PEG); type: in vitro ADME; settings: plasma for 18 hours
Experimental: The samples were stained with iodine, for PEG visualization. Lane 1 corresponds to mPEG5000-MeDTB-lysozyme, Lane 2 corresponds to mPEG5000-MeDTB-lysozyme in cysteine buffer, Lane 3 corresponds to mPEG5000-MeDTB-lysozyme in plasma for 18 hours, Lane 4 corresponds to mPEG5000-MeDTB-lysozyme with 1,4-dithio-DL-threitol (DTT) added, Lane 5 is a plasma sample control, and Lane 6 is PEG molecular weight markers. […] Free PEG is liberated after treatment with low molecular weight thiol, such as DTT.

[4] = system: bacterial cell wall; assay: Bacterial cell wall lysis turbidometric assay of enzyme activity; type: biochemical; settings: after treatment with 1 mM cysteine
[5] = Thiolytic cleavage of PEG-lysozyme conjugates (SDS-PAGE, RP-HPLC); type: physicochemical; settings: for cleavage under reducing SDS-PAGE conditions: 2% β-mercaptoethanol, 10 minutes at 70° C.
Experimental: In a study performed in support of the invention, lysozyme was used as a model polypeptide. As described in Example 8, lysozyme was incubated with mPEG-MeDTB-nitrophenylcarbonate in 0.1 M borate, at pH 9, at a 2:1 ratio of nitrophenylcarbonate to amino group of lysozyme. After reactions times of 15 minutes and 3 hours, separate samples were characterized by SDS-PAGE. A comparative conjugate was prepared by reacting lysozyme under the same conditions for 60 minutes with mPEG-nitrophenyl carbonate, which will form a stable mPEG-lysozyme conjugate.
Lanes 6-9 of the gel correspond to the samples in Lanes 1-4, but under reducing SDS-PAGE conditions, after treatment with 2% β-mercaptoethanol for 10 minutes at 70° C. […] In contrast, the stable mPEG-lysozyme conjugate was not affected upon incubation with a reducing agent, as evidenced by the agreement in the profile in Lane 9 and Lane 4.
A similar study was done using cysteine as a reducing agent on a purified mPEG5000-MeDTB-lysozyme conjugate. The results of the SDS-PAGE profile are shown in FIG. 12B, where an mPEG-MeDTB-lysozyme conjugate (Lane 1) treated with 1 mM cysteine (Lane 2), 5 mM cysteine (Lane 3), and 50 mM cysteine (Lane 4) are shown. Also shown are an mPEG-lysozyme conjugate (no cleavable linkage) before (Lane 5) and after treatment (Lane 6) with 50 mM cysteine. Lysozyme before (Lane 7) and after (Lane 8) with 50 mM cysteine are also shown. Lane 9 corresponds to protein markers.
Example 8 describes the methodology of the reverse-phase HPLC analysis. The trace at the bottom of FIG. 13A corresponds to neat lysozyme.
Reverse-phase HPLC analysis. RP-HPLC separation of PEG-lysozyme conjugates was achieved on a Vydac™ Protein C4 (4.6×150 mm) column eluted at 1 ml/min with aqueous acetonitrile gradient as follows. Each chromatography run started with a mobile phase A (30% acetonitrile, 5% 0.1 M sodium acetate pH 5, and 65% H2O), and over a period of 40 min ended with a mobile phase B (50% acetonitrile, 50% 0.1 M sodium acetate pH 5). UV detector set at 280 nm was used to monitor the chromatography. SDS-PAGE. Polyacrylamide gel electrophoresis under denaturing conditions was performed for conjugates characterization. Pre-cast NuPAGE® Bis-Tris gels (4-15%), NuPAGE®MES running buffer, molecular weight protein standards (Mark 12™), and Colloidal Coomassie® G-250 staining kit, were all obtained from Invitrogen, Carlsbad, Calif. […] Aliquots were taken out from the reaction vial at various time points and analyzed by RP-HPLC as described above (see FIG. 13A). […] Purified PEG-DTB-lysozyme containing only one PEG moiety per lysozyme was treated with 1 mM cysteine while the reaction was monitored by LC-MS. […]

Chain of bovine serum albumin (P02769 25-607): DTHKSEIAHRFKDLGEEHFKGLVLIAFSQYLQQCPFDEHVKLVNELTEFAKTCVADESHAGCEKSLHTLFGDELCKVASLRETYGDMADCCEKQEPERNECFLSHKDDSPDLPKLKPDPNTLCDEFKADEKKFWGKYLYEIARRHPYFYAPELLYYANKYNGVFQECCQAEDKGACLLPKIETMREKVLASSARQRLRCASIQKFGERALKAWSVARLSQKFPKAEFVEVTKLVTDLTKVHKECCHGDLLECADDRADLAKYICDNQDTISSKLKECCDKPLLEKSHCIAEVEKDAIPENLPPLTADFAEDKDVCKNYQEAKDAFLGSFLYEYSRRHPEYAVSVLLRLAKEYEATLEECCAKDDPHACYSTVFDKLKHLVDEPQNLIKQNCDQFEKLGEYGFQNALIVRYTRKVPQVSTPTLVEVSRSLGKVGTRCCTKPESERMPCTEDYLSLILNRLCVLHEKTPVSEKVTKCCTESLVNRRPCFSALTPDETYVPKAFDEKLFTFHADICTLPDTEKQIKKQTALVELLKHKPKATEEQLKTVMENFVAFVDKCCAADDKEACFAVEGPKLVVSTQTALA

**Q.** With PEG12000-MeDTB-lysozyme as the substance, how does the T1/2α ([1]; intravenous) read?
**A.** Its T1/2α is 3.71 h.

**Q.** What about the T1/2β ([1]; intravenous) of the same substance?
**A.** Its T1/2β is 37.2 h.

**Q.** And the “bioavailability (AUC)” value ([1]; subcutaneous)?
**A.** Its value is “best bioavailability”.

**Q.** Which results are given for PEG12000-lysozyme [reference compound]?
**A.** T1/2α ([1]; intravenous): 2.17 h; T1/2β ([1]; intravenous): 32.9 h

**Q.** What does the source list for lysozyme: model polypeptide?
**A.** T1/2α ([1]; intravenous): 0.25 h; T1/2β ([1]; intravenous): 24.1 h; blood concentration decrease ([1]; intravenous, within one hour after administration): more than 10 fold

**Q.** Which cleavage by albumin [2] does the source give for mPEG5000-MeDTB-lysozyme here?
**A.** Its cleavage by albumin is “cleaved by the albumin”.

**Q.** And the cleavage in plasma [3]?
**A.** The cleavage in plasma was “cleaved in plasma”.

**Q.** And the “cell-lysing (enzymatic) activity after thiolysis” value (from here on “cell-lysing (enzymatic) activity”) [4]?
**A.** The value was “nearly all”.

**Q.** And the “cell-lysing (enzymatic) activity” value ([4]; listed as mPEG-DTB-Lysozyme)?
**A.** The value was “Recovery of enzymatic activity”.

**Q.** And the “cleavage and release of lysozyme (RP-HPLC)” value ([5]; 1 mM cysteine, 30 minute time point)?
**A.** The value was “near completion”.

**Q.** And the “cleavage under reducing SDS-PAGE conditions” value [5]?
**A.** The value was “decomposed to regenerate native lysozyme”.

**Q.** And the “cleavage by cysteine (SDS-PAGE stained for PEG)” value ([5]; treated with cysteine)?
**A.** The value was “cleaved in the presence of cysteine”.

**Q.** For mPEG-lysozyme [reference compound], which “cell-lysing (enzymatic) activity” value [4] is on record?
**A.** The value was “remained inactive”.

**Q.** What about the “cleavage under reducing SDS-PAGE conditions” value [5] of the same substance?
**A.** Its value is “not affected”.
